Measurements from FireProtDB (doi:10.1371/journal.pone.0064824).
Several values for one entry are separate records, joined by “and”; a condition that tells them apart may be missing. Equal values may be shown once.

Settings: Homo sapiens, pH 7.5, Tris-HCl 20mM; for ddG of mutation (higher = less stable) / denaturant m value / unfolding free energy: 10 °C, Urea; for Tm: Thermal
[1] = CD, transition: 2, structure 1XWS

Sequence of Serine/threonine-protein kinase pim-1 E124Q, P11309 (P11309 whole entry E124Q): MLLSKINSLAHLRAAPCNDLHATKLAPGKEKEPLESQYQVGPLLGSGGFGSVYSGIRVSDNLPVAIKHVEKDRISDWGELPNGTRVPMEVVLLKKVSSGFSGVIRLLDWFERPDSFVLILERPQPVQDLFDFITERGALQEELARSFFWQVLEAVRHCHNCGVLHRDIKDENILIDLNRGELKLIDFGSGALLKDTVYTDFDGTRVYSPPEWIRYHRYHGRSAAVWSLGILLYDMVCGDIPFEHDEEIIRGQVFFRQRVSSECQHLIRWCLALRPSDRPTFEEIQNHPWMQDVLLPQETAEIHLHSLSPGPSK
Sequence of Serine/threonine-protein kinase pim-1 Y53H, P11309 (P11309 whole entry Y53H): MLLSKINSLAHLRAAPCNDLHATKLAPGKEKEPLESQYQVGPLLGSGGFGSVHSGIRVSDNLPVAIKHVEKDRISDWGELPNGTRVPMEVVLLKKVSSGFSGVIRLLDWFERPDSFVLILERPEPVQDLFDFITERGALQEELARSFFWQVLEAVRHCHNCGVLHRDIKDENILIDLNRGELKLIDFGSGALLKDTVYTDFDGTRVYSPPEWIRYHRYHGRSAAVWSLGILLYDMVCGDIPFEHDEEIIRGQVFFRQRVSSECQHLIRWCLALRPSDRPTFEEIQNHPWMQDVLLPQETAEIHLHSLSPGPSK
Sequence of Serine/threonine-protein kinase pim-1 E135K, P11309 (P11309 whole entry E135K): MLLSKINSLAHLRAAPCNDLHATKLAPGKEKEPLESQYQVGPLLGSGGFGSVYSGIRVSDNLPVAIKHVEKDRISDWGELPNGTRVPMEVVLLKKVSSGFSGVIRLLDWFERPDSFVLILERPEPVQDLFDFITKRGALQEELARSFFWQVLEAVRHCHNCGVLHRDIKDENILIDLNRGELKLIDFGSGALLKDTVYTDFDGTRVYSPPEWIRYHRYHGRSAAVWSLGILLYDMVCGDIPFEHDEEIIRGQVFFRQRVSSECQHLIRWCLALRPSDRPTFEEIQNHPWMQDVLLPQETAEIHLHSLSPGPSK
Sequence of Serine/threonine-protein kinase pim-1 wild type, P11309 (P11309 whole entry): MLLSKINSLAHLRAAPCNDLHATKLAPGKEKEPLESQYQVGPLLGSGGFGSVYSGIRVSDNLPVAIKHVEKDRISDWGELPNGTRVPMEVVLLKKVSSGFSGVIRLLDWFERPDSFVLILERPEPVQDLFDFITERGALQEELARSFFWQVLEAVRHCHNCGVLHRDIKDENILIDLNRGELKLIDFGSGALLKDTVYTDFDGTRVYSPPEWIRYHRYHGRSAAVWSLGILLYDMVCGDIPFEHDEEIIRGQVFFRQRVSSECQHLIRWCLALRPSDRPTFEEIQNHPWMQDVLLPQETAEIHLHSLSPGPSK
Sequence of Serine/threonine-protein kinase pim-1 E142D, P11309 (P11309 whole entry E142D): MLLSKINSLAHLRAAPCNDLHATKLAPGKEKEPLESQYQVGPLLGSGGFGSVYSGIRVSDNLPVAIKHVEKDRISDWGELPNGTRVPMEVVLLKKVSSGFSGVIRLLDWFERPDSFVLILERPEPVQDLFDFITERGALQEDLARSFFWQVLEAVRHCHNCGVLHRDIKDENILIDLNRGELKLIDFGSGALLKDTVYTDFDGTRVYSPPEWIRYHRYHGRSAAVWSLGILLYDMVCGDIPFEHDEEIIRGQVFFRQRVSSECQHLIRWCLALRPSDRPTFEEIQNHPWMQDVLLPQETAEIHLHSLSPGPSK

Row | Substance | ddG of mutation (higher = less stable) [1] | denaturant m value [1] | unfolding free energy [1] | Tm [1] | unfolding free energy (Fluorescence, transition: 4, structure 1XWS) | denaturant m value (CD, transition: 2) | unfolding free energy (CD, transition: 2) | Tm (CD, transition: 3)
1 | Serine/threonine-protein kinase pim-1 E135K, P11309 | 4.59 kcal/mol | 0.43 kcal/mol/M | 1.82 kcal/mol | 40.5 °C |  |  |  | 
2 | Serine/threonine-protein kinase pim-1 E142D, P11309 | 3.22 kcal/mol | 0.69 kcal/mol/M | 3.19 kcal/mol | 40 °C |  |  |  | 
3 | Serine/threonine-protein kinase pim-1 E124Q, P11309 |  |  |  | 44 °C | 3.46 kcal/mol and 3.08 kcal/mol and 5.22 kcal/mol |  |  | 
4 | Serine/threonine-protein kinase pim-1 Y53H, P11309 | 3.3 kcal/mol | 0.62 kcal/mol/M | 3.11 kcal/mol |  |  |  |  | 
5 | Serine/threonine-protein kinase pim-1 wild type, P11309 |  |  |  |  |  | 1.2 kcal/mol/M | 6.41 kcal/mol | 40.5 °C
